From patent publication EP4218932A2 (GammaDelta Therapeutics Limited, dated 2023)

molecular target: Vδ1 chain of the γδ TCR on Vδ1+ γδ T cells (human); experiment: cell-based or functional assay

T cell degranulation (EC50 µg/ml - 3 donors) [µg/mL] | Binder | Killing assay (EC50 µg/ml - 2 or 3 donors) [µg/mL]
 | 1252_P01_C08 (antibody, human IgG1, V domains shown) VH: EVQLLESGGGLVQPGRSLRLSCAASGFTVSSNYMSWVRQAPGKGLEWVSVIYSGGSTYYADSVKGRFTISRDNSKNTLYLQMNSLRAEDTAVYYCASPIELGAFDIWGQGTLVTVSS VL: SSYELTQPPSVSVAPGKTARITCGGNNIGSQSVHWYQQKPGQAPMLVIYYDSDRPSGIPERFSGSNSGNTATLTISRVEAGDEADYYCQVWDSSSDHVVFGGGTKLTVL | 0.02
0.001 | 1245_P01_G06 (antibody, V domains shown) VH: QVQLVESGGGLVKPGGSLRLSCAASGFTFSDYYMSWIRQAPGKGLEWVSYISSSGSTIYYADSVKGRFTISRDNAKNSLYLQMNSLRAEDTAVYYCARHSWNDAFDVWGQGTLVTVSS VL: not shown | 
 | 1245_P01_E07 (antibody, human IgG1, V domains shown) VH: QVQLVESGGGLVKPGGSLRLSCAASGFTFSDYYMSWIRQAPGKGLEWVSYISSSGSTIYYADSVKGRFTISRDNAKNSLYLQMNSLRAEDTAVYYCARVDYADAFDIWGQGTLVTVSS VL: DIQMTQSPSSLSASVGDRVTIACRAGQSIGTYLNWYQQKPGKAPKLLIYVASSLQSGVPSRFSGSGSGTEFTLTISSLQPEDFATYYCQQSYSTLLTFGRGTKVEIK | 0.06
0.005 | 1139_P01_E04 (antibody, human IgG1, V domains shown) VH: QVQLQQSGPGLVKPSQTLSLTCAISGDSVSSNSAAWNWIRQSPSRGLEWLGRTYYRSKWYNDYAVSVRSRITINPDTSKNQFSLQLNSVTPEDTAVYYCARSWNDAFDIWGQGTTVTVSS VL: DIVMTQSPSTLSASIGDRVTITCRAGQSISTWLAWYQQKPGKAPKLLIYDASSLESGVPLRFSGSGSGTDFTLTISSLQPEDFATYYCQQSYSTPLTFGGGTKVEIK | 
0.001 | 1245_P01_G09 (antibody, human IgG1, V domains shown) VH: QVQLQQSGPGLVKPSQTLSLTCAISGDSVSSNSAAWNWIRQSPSRGLEWLGRTYYGSKWYNEYALSVKSRIIINPDTSKNQFSLQLNSVTPEDTAVYYCARDYYYSMDVWGQGTLVTVSS VL: DIVMTQSPSTLSASIGDRVTITCRAGQSISTWLAWYQQKPGKAPKLLIYDASSLESGVPLRFSGSGSGTEFTLAISSLQPDDFATYYCQQSYSTPVTFGQGTKVEIK | 
0.002 | 1245_P02_G04 (antibody, human IgG1, V domains shown) VH: QVQLQQSGPGLVKPSQTLSLTCAISGDSVSSKSAAWNWIRQSPSRGLEWLGRTYYRSKWSTDYAASVKSRITINPDTSKNQLSLQLNSVTPEDTAVYYCARTWSGYVDVWGQGTLVTVSS VL: DIQMTQSPPALSASVGDRVTITCRASQDINDWLAWYQHKPGKAPKLLIYDASSLESGVPSRFSGSGSGTEFTLTISSLQPDDFATYYCQQSYSTPQVTFGQGTRLEIK | 0.1
